Experimental data published in US9902783B2, “Antibodies and pharmaceutical compositions containing same useful for inhibiting activity of metalloproteins” (Yeda Research and Development Co. Ltd., priority 2007, dated 2018).

T1: Pro-MMP-2 (Homo sapiens, UniProt P08253)
T1 sequence (P08253 30-660 limits assumed): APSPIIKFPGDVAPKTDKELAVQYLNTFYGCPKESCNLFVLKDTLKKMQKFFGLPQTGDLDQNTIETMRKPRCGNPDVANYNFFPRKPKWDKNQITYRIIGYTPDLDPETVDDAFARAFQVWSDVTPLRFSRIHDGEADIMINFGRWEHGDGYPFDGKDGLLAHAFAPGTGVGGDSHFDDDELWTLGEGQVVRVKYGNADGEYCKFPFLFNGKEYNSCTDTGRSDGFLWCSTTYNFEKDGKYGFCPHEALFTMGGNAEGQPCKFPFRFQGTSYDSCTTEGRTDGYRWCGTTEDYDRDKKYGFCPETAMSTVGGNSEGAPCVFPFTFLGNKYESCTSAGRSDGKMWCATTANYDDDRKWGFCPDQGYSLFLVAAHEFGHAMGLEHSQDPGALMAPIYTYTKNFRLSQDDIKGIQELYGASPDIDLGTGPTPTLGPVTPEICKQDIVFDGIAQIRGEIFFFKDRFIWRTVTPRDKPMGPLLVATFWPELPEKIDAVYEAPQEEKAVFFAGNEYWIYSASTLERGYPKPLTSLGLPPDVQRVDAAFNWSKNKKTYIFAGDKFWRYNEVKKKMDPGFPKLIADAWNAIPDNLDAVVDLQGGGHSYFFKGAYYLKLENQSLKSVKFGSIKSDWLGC

T2: MMP-7 (matrilysin) (Homo sapiens, UniProt P09237)
T2 sequence (P09237 95-267): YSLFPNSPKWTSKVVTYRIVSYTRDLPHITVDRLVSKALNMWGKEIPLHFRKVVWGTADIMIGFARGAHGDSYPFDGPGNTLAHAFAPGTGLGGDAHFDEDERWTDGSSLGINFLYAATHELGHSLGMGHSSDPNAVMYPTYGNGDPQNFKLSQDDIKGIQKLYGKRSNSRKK

T3: full length native MMP-2 secreted by HT1080 cells (Homo sapiens, UniProt P08253)
T3 construct: full length native MMP-2 secreted by human fibrosarcoma (HT1080) cell cultures; endogenous in cells; host or cells: HT1080 human fibrosarcoma cells, conditioned medium
T3 sequence (P08253 30-660): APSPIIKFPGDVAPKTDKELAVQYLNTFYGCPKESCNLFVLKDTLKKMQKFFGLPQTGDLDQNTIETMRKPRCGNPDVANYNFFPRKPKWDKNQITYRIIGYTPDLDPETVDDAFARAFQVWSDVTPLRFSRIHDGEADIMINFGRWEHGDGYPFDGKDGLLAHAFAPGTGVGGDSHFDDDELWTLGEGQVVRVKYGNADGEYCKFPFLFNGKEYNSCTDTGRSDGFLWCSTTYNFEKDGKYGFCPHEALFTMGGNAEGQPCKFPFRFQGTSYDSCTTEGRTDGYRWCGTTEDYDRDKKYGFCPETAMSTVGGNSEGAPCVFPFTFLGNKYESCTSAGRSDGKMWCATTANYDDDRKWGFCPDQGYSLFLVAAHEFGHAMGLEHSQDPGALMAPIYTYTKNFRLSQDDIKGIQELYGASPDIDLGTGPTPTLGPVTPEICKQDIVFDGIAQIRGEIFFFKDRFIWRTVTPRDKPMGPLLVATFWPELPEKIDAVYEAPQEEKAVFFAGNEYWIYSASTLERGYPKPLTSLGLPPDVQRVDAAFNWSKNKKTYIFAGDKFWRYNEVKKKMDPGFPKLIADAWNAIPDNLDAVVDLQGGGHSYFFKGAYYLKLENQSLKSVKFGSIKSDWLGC


Tests used:
Pro-MMP-2 = biological target: T1, Pro-MMP-2; type: binding
MMP-7 (matrilysin) = biological target: T2, MMP-7 (matrilysin); experiment: inhibition assay with fluorogenic peptide substrate, MMP-7; type: biochemical; details: mAb concentrations of up to 30 μM
Description: To explore the selectivity of 6C6, its reactivity was tested toward different matrix metalloproteinase subgroups including matrilysin (MMP7), membrane type MMP (MT1-MMP) and related disintegrin (ADAMs) tumor necrosis factor-α-converting enzyme (TACE). The core structures of these enzymes, are highly similar, varying mostly within the peripheral loops. Specifically the zinc-histidine scaffold is well conserved, showing a consensus helix followed by a loop that serves as a scaffold for the three histidine residues that coordinate the catalytic zinc ion (FIG. 13).
Similar inhibition assays were performed with appropriate flourogenic peptide substrates. […] Sequence variations, mostly within the peripheral loops dictate differences in the extent of exposure of the zinc-histidine motif, in the shape of the active site and its surface electrostatic may account for this selective inhibitory pattern.

MMP9 = MMP9 (Homo sapiens, UniProt P14780); experiment: cleavage of mAb by MMP-9 on overnight incubation; details: overnight incubations with 30 μM MMP9
Sequence of MMP9 (P14780 94-707): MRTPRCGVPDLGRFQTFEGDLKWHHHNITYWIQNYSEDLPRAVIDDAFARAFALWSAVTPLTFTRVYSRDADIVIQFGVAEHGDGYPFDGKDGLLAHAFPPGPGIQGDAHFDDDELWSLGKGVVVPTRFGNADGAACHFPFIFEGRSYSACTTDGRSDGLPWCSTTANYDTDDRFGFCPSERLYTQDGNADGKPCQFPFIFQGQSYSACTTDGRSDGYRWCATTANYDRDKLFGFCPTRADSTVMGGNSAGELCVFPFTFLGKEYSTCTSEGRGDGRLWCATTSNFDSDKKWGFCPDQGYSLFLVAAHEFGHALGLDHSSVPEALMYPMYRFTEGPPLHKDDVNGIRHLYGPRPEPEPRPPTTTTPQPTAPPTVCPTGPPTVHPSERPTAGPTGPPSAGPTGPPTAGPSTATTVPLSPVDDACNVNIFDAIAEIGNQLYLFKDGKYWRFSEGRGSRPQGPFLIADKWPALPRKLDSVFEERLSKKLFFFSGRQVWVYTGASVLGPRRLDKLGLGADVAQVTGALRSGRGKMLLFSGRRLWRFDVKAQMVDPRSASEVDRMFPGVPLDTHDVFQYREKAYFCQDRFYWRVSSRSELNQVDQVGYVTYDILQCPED

[1] = biological target: T4, catalytic zinc ion of MMP9 (Homo sapiens, UniProt P14780); experiment: X-ray absorption spectroscopy of MMP9-6C6 complex; details: zinc K edge XAS, MMP-9 catalytic domain-mAb complex
T4 construct: lacking the hinge region and the hemopexin domain, Ala1-Gly424 |P14780|MMP9_HUMAN; made in house
T4 sequence (P14780 94-444): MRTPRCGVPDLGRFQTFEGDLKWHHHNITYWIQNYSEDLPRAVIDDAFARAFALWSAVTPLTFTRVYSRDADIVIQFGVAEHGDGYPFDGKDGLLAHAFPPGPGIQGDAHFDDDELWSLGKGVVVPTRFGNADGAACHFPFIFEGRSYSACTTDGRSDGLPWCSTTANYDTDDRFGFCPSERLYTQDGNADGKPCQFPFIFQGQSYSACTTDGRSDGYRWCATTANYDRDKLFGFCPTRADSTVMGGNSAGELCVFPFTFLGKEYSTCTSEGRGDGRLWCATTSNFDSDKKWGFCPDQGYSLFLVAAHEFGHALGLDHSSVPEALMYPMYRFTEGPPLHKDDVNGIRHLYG
Text: FIG. 16 is a graph of results from X-ray absorption spectroscopy at the zinc K edge of active MMP9 (black) and inhibited MMP9-6C6 complex (red). The results are presented in the form of radial distribution from the zinc ion. The edge position the MMP-9 catalytic domain-mAb complex (red) shifts to a higher energy relative to active MMP-9 (inset) indicating binding to the catalytic zinc ion. […] Remarkably, this mode of binding is analogous to the binding of TIMPs at the active site of MMPs.
In order to further study the differences between active MMP9 and an inhibited MMP9-6C6 complex, X ray absorption spectroscopy was performed. […] The data is presented in the form of Fourier transform (FT) spectra to provide the radial distribution of the various atoms within the first and second coordination shells of the catalytic zinc ion in MMP9. Apparent change in the radial distribution spectra of the free and inhibited enzyme can be observed above the noise level. These spectral changes indicate that the local environment of the catalytic zinc ion undergoes structural changes upon binding to 6C6. The observed deviation in both spatial distribution and peak intensities of the FT spectral features between the active and the inhibited enzyme indicate unequivocally that the local structure of the catalytic zinc changes upon mAb complex formation.

Pro-MMP-9 = Pro-MMP-9 (Homo sapiens, UniProt P14780); type: binding
Sequence of Pro-MMP-9 (P14780 20-707 limits assumed): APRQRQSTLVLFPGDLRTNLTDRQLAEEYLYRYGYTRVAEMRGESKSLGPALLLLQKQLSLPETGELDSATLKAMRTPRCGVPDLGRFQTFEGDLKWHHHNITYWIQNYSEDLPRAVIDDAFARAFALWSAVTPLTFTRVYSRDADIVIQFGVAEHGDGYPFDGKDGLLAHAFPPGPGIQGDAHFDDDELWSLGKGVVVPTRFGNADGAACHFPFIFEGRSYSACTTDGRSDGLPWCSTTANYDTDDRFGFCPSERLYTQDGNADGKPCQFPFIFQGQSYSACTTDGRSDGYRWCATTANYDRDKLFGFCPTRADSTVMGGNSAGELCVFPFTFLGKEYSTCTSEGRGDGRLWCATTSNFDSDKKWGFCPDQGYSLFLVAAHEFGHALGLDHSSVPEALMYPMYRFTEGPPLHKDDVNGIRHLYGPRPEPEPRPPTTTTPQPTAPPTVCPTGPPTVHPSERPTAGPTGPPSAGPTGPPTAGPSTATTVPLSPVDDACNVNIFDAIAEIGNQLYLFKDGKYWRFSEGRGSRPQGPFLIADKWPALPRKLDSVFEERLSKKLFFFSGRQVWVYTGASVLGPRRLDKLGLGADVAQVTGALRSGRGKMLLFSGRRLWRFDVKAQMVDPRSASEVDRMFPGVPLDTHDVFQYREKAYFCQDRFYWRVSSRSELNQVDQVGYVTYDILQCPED

[2] = cross reactivity, competitive ELISA and immuno affinity assay, vitamin; type: binding
Text: The selectivity of anti CoTCPP and anti Imisdp was further challenged, by testing their cross reactivity with non related zinc dependent enzymes—Carbonic Anhydrase (CA) and brockii alcohol dehydrogenase (TbADH). Similar to active MMPs CA contains a zinc ion that is tetrahedraly coordinated to three histidine residues and a water molecule, TbADH contains a catalytic zinc ion that is tetraheadrally coordinated to four different amino acid residues, histidine, cysteine, aspartate and glutamate. […] Anti CoTCPP mAb was also tested for its cross reactivity with related physiological porphyrins such as the Heme group within Myoglobin and Hemoglobin and vitamin.
Carbonic anhydrase, and alcohol dehydrogenase all have rather buried active sites, similarly, the porphyrin moiety in Myoglobin and Hemoglobin is not exposed. Vitamin B 12 contains metal at the center of planer […] structure yet the axial ligands may interfere with the binding of the mAb.

[3] = biological target: T3, full length native MMP-2 secreted by HT1080 cells; experiment: immunoprecipitation of HT1080 conditioned medium and western blot; type: binding; details: HT1080 conditioned medium, not activated
Description: HT1080 cells were seeded in petri dishes. After reaching 80% confluence, the medium (DMEM supplemented with 10% FCS, nonessential amino acids, penicillin, streptomycin, sodium pyruvate, and L-glutamine) was changed to serum free medium (without FCS). Following another 24 h of incubation, conditioned medium (CM) was harvested from the adherent cells and concentrated using Millipore Centricon-10 (Bedford, Mass.). Concentrated supernatants were used for immunoprecipitations. CM was incubated with anti-1 (CoTCPP) mAb (15 μg/ml) overnight at 4° C. […] Beads were washed 3 times with PBS, suspended in SDS sample buffer, and heated to 95° C. for 3 min Immunoprecipitates were recovered by centrifugation and subjected to SDS/PAGE. After separation, proteins were transferred to nitrocellulose (NC) membranes and probed with anti-MMP-2 antibody.
To activate ProMMP-2 produced by HT1080 cells, 1 mM of 4-aminophenyl mercuric acetate (APMA) was added to the concentrated CM followed by 6 h incubation in 37° C. After activation, the CM was dialyzed (×3) against PBS at 4° C., to remove APMA Immunoprecipitation with the activated medium was performed as described above.

Molecule | binding to Pro-MMP-2 (Pro-MMP-2) | inhibition of MMP-7 (MMP-7 (matrilysin)) | cleavage of mAb by MMP-9 (MMP9) | binding mode at the catalytic zinc ion [1] | binding to Pro-MMP-9 (Pro-MMP-9) | cross reactivity with vitamin [2] | binding to Pro-MMP-2 [3]
6C6: monoclonal antibody, IgG2a, raised against the hapten Imisdp; MMP-2 and MMP-9 inhibitory; SEQ ID NO: 1 (protein, 6c6 mAb light chain) CMETTQTPLSLPVSLGDQASISCRSSQSIVHSNGNTFLEWYLQKPGQSPKLLIYKVSNCRFSGVPDRFSGSGSGTDFTLKISRVEAEDLGVYYCFQASHVPPTFGGG | did not bind | neither MMP-7 nor TACE were inhibited to any measurable extent | not cleaved | directly binds the zinc ion | did not bind | – | –
13E11: monoclonal antibody, IgG2b, raised against the hapten CoTCPP (antibody, V domains shown, 13E11 mAb heavy chain; 13E11 mAb light chain, monoclonal antibody, IgG2b, raised against the hapten CoTCPP) VH: EGGGLVQPGGSRKLSCAASGFTFTSFGMHWVRQAPEKGLEWVAYISSGNEIIYYADTVKGRFTISRDNPKNTLFLQMTSLRSEDTAMYYCARNYYRYGFYVMDYWGQG VL: EIVVTQSPAILSASPGEKVTMTCRASSSVSYMHWYQQKPGSSPKPWIYATSNELASGVPARFSGSGSGTSYSLTISRVEAEDAATYYCQQWISNPLTFGAG | – | – | – | – | – | No cross was detected | but not Pro-MMP-2
